Source: patent US20110059092A1 (INNOGENETICS, published 2011)
Numbering of substitutions follows the chain as printed. Ends that are not written are not given here. * marks the point of attachment. Biotin = O=C1N[C@H]2[C@H](CS[C@H]2CCCCC(=O)*)N1

T1: Aβ8-15-bio (not fully specified (C-terminus); printed as S8GYEVHHQ15GK-biotin)
T1 construct: Synthetic biotinylated peptide with a free N-terminus at Ser8 of Aβ; also called IGP-2258; Aβ8-15 peptide
T1 peptide: SGYEVHHQGK(Biotin)

T2: Aβ6-13-bio (not fully specified (C-terminus); printed as H6DSGYEVH13GK-biotin)
T2 construct: Synthetic biotinylated peptide, shifted two amino acids N-terminal compared with Aβ8-15; also called Aβ6-13 peptide
T2 peptide: HDSGYEVHGK(Biotin)

B1: TeiA 2b.6 (antibody, IgG2b, V domains shown)
VH: GGLVQPGGSLRLSCATSGFTFTDFYMEWVRQPPGKRLEWIAASRNKANGYTTEYSASVKGRFIVSRDTSQGILYLQMSALRAEDTAIYYCAIYRYYAMDYWGQGTSVTVSS
VL: SSLTVTAGEKVTMSCKSSQSLFNSGRQTNYLTWFQQRPGQAPKLLIYWASTRGSGVPDRFTGSGSGTEFTLTISSVQAEDLAVYYCQNDYTYPLTFGAG
notes: Mouse monoclonal, IgG2b; also called 2.13.E5; 2.13.E5.E4
B2: TeiA 1.1 (antibody, IgG1, V domains shown)
VH: GGLVQPGGSLRLSCATSGFTFSDFFIEWVRQPPGKRLEWITASRNKNYDYKTEYSASVKGRFIVSRDTSQSILYLQMNALRAEDTAIYYCAIYRHYAMDYWGQGTSVTVSS
VL: B1 VL with K16T, R26T, F34Y, R37K, A41P, G53E, E68D
notes: Mouse monoclonal, IgG1; The printed variable regions seem N-terminally incomplete (primer region missing); also called 3.46.B10; 3.46.B10.E7
B3: TeiA 1.7 (antibody, IgG1, V domains shown)
VH: GGLVQPGGSLRLSCATSGFTFSDFYMEWVRQPPGRRLEWIAASRDKAKDYTTEYSASVKGRFIVSRDTSQSIFYLQMNALRSEDTAIYYCATYFSYAMDYWGLGTSVTVSS
VL: SSLTVTAGEKVTMNCKSSQNLLNSGNQVNYLTWFQQKPGQPPKLLIYWASTRESGVPDRFIGSGSGTDFTLTINSVQAEDLAVYYCQNDYRYPLTFGAG
notes: Mouse monoclonal, IgG1; The printed variable regions seem N-terminally incomplete (primer region missing); also called 2.8.A3; 2.8.A3.F8

Target: T1, Aβ8-15-bio
Test: Luminex: biotinylated peptide on avidin beads, anti-mouse phycoerythrin detection
Description: (§1) To determine the specificity of the antibody a peptide was used which is shifted two amino-acids N-terminal as compared to the Aβ₈₋₁₅, the Aβ₆₋₁₃ peptide. The biotinylated versions of these peptides are used in order to capture it efficiently to avidin Luminex beads. […] The results presented in Table 3 are raw data expressed as Mean Fluorescence Intensity (MFI).

| Binder | Luminex assay (MFI) |
| --- | --- |
| B1 | 1690 |
| B2 | 1820 |
| B3 | 1720 |

Target: T2, Aβ6-13-bio
Test: as above
Description: as §1

| Binder | Luminex assay (MFI) |
| --- | --- |
| B1 | 51 |
| B2 | 24 |
| B3 | 5 |

Target: T1, Aβ8-15-bio
Test: bridging assay: BSA-coupled Aβ8-15 peptide (PG127) captures one binding site, biotinylated peptide detects
Method: Spleen of both mice were prepared and fused to SP2/0 cells. After plating, 66 plates (±3000 clones) were screened. […] In the bridging assay, BSA coupled peptide IGP-128, PG127 (see Table 3) was used to capture one binding site of the antibody and a biotinylated peptide was used to detect the captured antibody in a so-called bridging assay. This assay gives an indication on the affinity of the antibody: a high-affinity antibody will give a higher signal than a lower affinity antibody. Indeed ‘two classes’ of antibodies have been identified.

| Binder | Bridging assay (OD450) |
| --- | --- |
| B1 | 4 |
| B2 | 3.76 |
| B3 | 0.222 |
